Numbering of substitutions follows the chain as printed.

One test addresses T1, hiR2-FL-H505R-T7 (human) (UniProt Q6PJF5).
T1 sequence: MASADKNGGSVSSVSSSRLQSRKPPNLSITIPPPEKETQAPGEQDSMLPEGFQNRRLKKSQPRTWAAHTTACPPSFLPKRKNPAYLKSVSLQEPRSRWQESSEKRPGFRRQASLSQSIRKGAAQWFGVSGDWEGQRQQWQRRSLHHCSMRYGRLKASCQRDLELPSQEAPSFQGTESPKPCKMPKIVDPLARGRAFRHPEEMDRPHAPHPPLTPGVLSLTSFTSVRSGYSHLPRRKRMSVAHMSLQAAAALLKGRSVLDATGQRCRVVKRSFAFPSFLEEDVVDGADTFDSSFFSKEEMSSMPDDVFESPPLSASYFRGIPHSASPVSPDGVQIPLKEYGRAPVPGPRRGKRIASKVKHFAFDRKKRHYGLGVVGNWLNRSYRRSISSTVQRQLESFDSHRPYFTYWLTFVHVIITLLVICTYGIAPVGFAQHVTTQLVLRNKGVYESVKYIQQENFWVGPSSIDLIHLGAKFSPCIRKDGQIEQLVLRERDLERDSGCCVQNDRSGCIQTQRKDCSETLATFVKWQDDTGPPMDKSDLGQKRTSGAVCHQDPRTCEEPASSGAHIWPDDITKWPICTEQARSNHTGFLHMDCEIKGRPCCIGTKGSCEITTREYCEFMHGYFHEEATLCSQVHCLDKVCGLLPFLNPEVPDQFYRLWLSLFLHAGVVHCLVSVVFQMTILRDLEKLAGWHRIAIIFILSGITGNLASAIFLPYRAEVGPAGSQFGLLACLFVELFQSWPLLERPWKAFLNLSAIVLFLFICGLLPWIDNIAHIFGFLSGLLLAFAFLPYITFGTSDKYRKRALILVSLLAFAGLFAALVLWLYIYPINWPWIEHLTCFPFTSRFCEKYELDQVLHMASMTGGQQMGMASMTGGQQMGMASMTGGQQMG
Kind of test: FACS, MEF-DKO cells, 3 µg/ml. (In flow cytometry, cells or beads pass a laser one at a time.)

The target of another test is T2, hiR2-FL-K536A-T7 (human) (UniProt Q6PJF5).
T2 sequence: T1 sequence with R505H, K536A
Kind of test: FACS on MEF-DKO cells expressing the variant, 3 µg/ml antibody.

B1: antibody 48 (antibody, V domains shown)
VH: QVQLQQSGTELVRPGTSVKVSCKASGYAFTNYLIEWVKQRPGQGLEWIGVINPGSGFTKYNEKFKGKATLTADKSSSTVYMHLSSLTSEDSAVYFCARGLYRAMDYWGQGTSVTVSS
VL: DIQMTQSPASQSASLGESVTITCLASQTIATWLAWYQQKPGKSPQLLIYGATTLADGVPSRFSGGGSGTKFSFKISSLQAEDFVSYYCQQLYSTPYTFGGGTKLEIK
In the test with hiR2-FL-H505R-T7 (human), B1 came in with a loss of binding vs wild type of more than 60%.

B2: antibody 34 (antibody, V domains shown)
VH: QVTLKESGPGILQPSQTLSLTCSFSGFSLSTFSLGVGWIRQSSGKGLEWLAHIWWDDEKYYNPALKSRLTISKDTSKNQVFLKIANVDAADTATYYCARAYYSKSYYALDYWGQGTSVTVSS
VL: DIQMTQSPSSLSASLGERVSLTCRASQEISGYLSWLQQKPDGTIKRLIYAASTLDSGVPKRFSGSRSGSDYSLAISSLESEDFADYYCLQYANFPFTFGSGTKLEIK
The molecule B2 had a loss of binding vs wild type with hiR2-FL-K536A-T7 (human) of more than 95%.

B3: antibody 22 (antibody, V domains shown)
VH: QVTLKESGPGILQPSQTLSLTCSFSGFSLSTFGMGVGWIRQPSGKGLEWLAHIWWDDEKYYNSALKSRLTISKATSKNQVFLKIANVDTADTATYYCARISNYGSNYWYFNVWGTGTTVTVSS
VL: QVVLTQSPALMSASPGEKVTMTCSAGSSVSYMYWYQQKPGSSPRVLIYDTSNLASGVPARFTGSGSGTSYSLTISRMEAEDAATYYCQQWNSYPLTFGAGTKLELK
On to B3, for which, in the test with hiR2-FL-K536A-T7 (human), the loss of binding vs wild type was more than 95%.

B4: antibody 44 (antibody, V domains shown)
VH: B3 VH with G44E, E58D, S63P, A74D, V80I, A85T, D91E, A98S, S101G, N111D
VL: B3 VL with V2I, L10V, S24T, G26S, S30Y, K38T, V45L, A59V, T62S, S92T
On to B4, for which the loss of binding vs wild type with hiR2-FL-K536A-T7 (human) is more than 95%.

B5: antibody 42 (antibody, V domains shown)
VH: B3 VH with F24L, M34R, S63P, A74D, K83R, S101Q, N111D
VL: LIVLTQSPAIMSASPGEKVTMTCGATSRISYMFWYQQKPGSSPRVLIYDTSNLASGVPVRFSGSGSGTSYSLTISRVEAEDVATYYCQQWNSYPLTFGAGTKLELK
B5: the loss of binding vs wild type with hiR2-FL-K536A-T7 (human) was more than 95%.

The values are drawn from patent publication US20240287172A1, “PROTEIN BINDERS TO IRHOM2 EPITOPES” (SCIRHOM GMBH, priority 2019, published 2024).
